Paper PMC4753521, “Real-time and simultaneous monitoring of the phosphorylation and enhanced interaction of p53 and XPC acidic domains with the TFIIH p62 subunit” (Oncogenesis, 2015)
Non-standard residues stand in square brackets, D forms with d. No end group written: not given here. pT = C[C@@H](OP(=O)(O)O)[C@H](N)C(=O)O; pS = N[C@@H](COP(=O)(O)O)C(=O)O

T1: human TFIIH p62-PH domain (residues 1–108) (human, UniProt P32780 1-108)
T1 construct: PH domain of the p62 subunit of the general transcription factor TFIIH, human, residues 1-108; Used 15N- or 13C/15N-labelled in the NMR experiments, unlabelled when added to XPC-AF; also called pleckstrin homology (PH) domain of the p62 subunit of TFIIH
T1 sequence (looked up): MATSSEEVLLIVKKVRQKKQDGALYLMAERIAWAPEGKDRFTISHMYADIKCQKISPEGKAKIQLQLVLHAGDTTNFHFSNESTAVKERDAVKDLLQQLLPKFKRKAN

B1: Ser129-phosphorylated peptide of human XPC (residues 124–142) (peptide, UniProt Q01831 124-142, looked up)
peptide: EEEEE[pS]ENDWEEVEELSEP
notes: XPC, human, residues 124-142; also called Ser129-phosphorylated XPC peptide; source: synthetic peptide, bought: Sigma Genosys Japan
B2: human XPC-AF (residues 109–156) phosphorylated at Ser129 by CK2 (domain or fragment, UniProt Q01831 109-156, looked up)
chain: AHHLKRGATMNEDSNEEEEE[pS]ENDWEEVEELSEPVLGDVRESTAFSRS
modifications: also: 13C/15N-labeled
notes: acidic fragment of the nucleotide excision repair factor XPC, human, residues 109-156; 13C/15N-labelled; in the complex with p62-PH phosphorylation of Ser129 reached ~80% at ~2 h; also called Ser129-phosphorylated XPC-AF; source: E. coli Rosetta 2 (DE3) pLysS, purified (Ni-NTA, thrombin digestion, Superdex30); phosphorylated by CK2 in the NMR tube
B3: Thr55-phosphorylated peptide of human p53-TAD2 (residues 41–62) (peptide, UniProt P04637 41-62, looked up)
peptide: DDLMLSPDDIEQWF[pT]EDPGPDE
notes: p53 TAD2, human, residues 41-62; also called Thr55-phosphorylated p53-TAD2; TP; source: synthetic peptide, bought: Sigma Genosys Japan
B4: Ser46, Thr55 double-phosphorylated peptide of human p53-TAD2 (residues 41–62) (peptide, UniProt P04637 41-62, looked up)
peptide: DDLML[pS]PDDIEQWF[pT]EDPGPDE
notes: p53 TAD2, human, residues 41-62; also called Ser46, Thr55 double-phosphorylated p53-TAD2; source: synthetic peptide, bought: Sigma Genosys Japan
B5: unphosphorylated peptide of human XPC (residues 124–142) (peptide, UniProt Q01831 124-142, looked up)
peptide: EEEEESENDWEEVEELSEP
notes: XPC, human, residues 124-142; also called unphosphorylated XPC peptide; source: synthetic peptide, bought: Sigma Genosys Japan
B6: Ser46-phosphorylated peptide of human p53-TAD2 (residues 41–62) (peptide, UniProt P04637 41-62, looked up)
peptide: DDLML[pS]PDDIEQWFTEDPGPDE
notes: p53 TAD2, human, residues 41-62; also called Ser46-phosphorylated p53-TAD2; source: synthetic peptide, bought: Sigma Genosys Japan

Experiments:
Conditions in all cases: both partners purified
[1] = molecular target: T1, human TFIIH p62-PH domain (residues …); test: ITC; VP-ITC; 100 μM XPC peptide in the syringe (25 × 20 μl injections), 2 ml of 10 μM p62-PH in the cell; 20 °C; 20 mM potassium phosphate (pH 6.8)
[2] = molecular target: T1, human TFIIH p62-PH domain (residues …); test: NMR titration; real-time NMR of 150 μl of 50 μM complex of labeled XPC-AF and labeled p62-PH; 2.5 μg CK2 added; 20 mM potassium phosphate (pH 6.8), 1 mM ATP, 10 mM MgCl2, 5 mM deuterated DTT, 10% D2O
[3] = molecular target: T1, human TFIIH p62-PH domain (residues …); test: NMR titration; 1H,15N HSQC perturbation: p53-TAD2 peptides added to 15N-labeled p62-PH at a molar ratio of 1:2.5 (p62:p53); 20 mM potassium phosphate (pH 6.8), 1 mM ATP, 10 mM MgCl2, 5 mM deuterated DTT, 10% D2O; 32 °C

| Binder | Kd [1] | binding result [3] | further results |
| --- | --- | --- | --- |
| B1 | 41 nM |  |  |
| B2 |  |  | binding result [2]: binds |
| B3 |  | binds |  |
| B4 |  | binds |  |
| B5 | 132 nM |  |  |
| B6 |  | binds |  |
